Data from the nanobody polyreactivity screen of Harvey et al. (2022).

Experiment: yeast display, Sf9 membrane polyspecificity reagent, FACS + sequencing; frameworks hold sequencing errors
Method in brief: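 Genes from sorted yeast were amplified by colony PCR, read by MiSeq 2 × 250 sequencing and filtered on CDR length. These cells carried a synthetic nanobody library in Saccharomyces cerevisiae BJ5465 and were sorted by FACS into low and high (top ~1%) gates on anti-HA and streptavidin fluorescence. Polyreactivity is labelled according to the gate of origin.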

Sequence | polyreactivity (PSR sort gate)
QVQLVESGGGLVQAGGSLRLSCAASGNIFLFYVMGWYRQAPVKERELVAAITLSGTNTYYADSVKGRFTISRDNAKNNVYLQMNSLKPEDTAVYYCNADWWSDGYDYWGQRTQVTVSS | low polyreactivity
QVQLVESGGGLVQAGGSLRLSCAASGNIFLRYAMGWYRQAPGKERELVASITRSGASTYYAVSVKGRFTISRDNAKNTVYLQMNSLKPEDTAVYYCAASYYFRYYRGGYWGQGTQVTVSS | high polyreactivity
QVQLVESGGGLVQAGGSLRLSCAASGNIFLYYAMGWSRQAPGKERELVADIDSSGASTYYADSVKGRFTISRDNAKNNVYLQMNSLKPEDTAVYYCAAEFHWWYAGYDYGYWGQGTQVTVSS | low polyreactivity
QVQLVESGGGLVQAGGSLRLSCAASGNIFLYYAMGWYRPAPGKERELVADIDSSGAATYYADSVKGRFTISRDYAKNTVYLQMNSLKPEDTAVYYCAAEFHWWYAGYDYGYWGQGTQVTVSS | low polyreactivity
QVQLVESGGGLVQAGGSLRLSCAASGNIFLYYTMGWYRQAPGKERELVAGITSGGSTYYADSVKGRFTISRDNAKNTVSLQMNSLKPEDTAVYYCAATYYPNFYRYYYWGQGTQVTVSS | low polyreactivity
QVQLVESGGGLVQAGGSLRLSCAASGNIFNDNAKGLYRKAPVKERELVAAISSGGSTNYADSVKGRFTISRDYAKNTVYLQMNSLKPEDTAVYYCAAELTLIYWWSLDYWGQGTQVTVSS | low polyreactivity
QVQLVESGGGLVQAGGSLRLSCAASGNIFPGYAMGWYRQAPGKERELVAGISGSGGRTYYADSVKGRFTISRDNAKNTVYLQMNSLKTEDTAVYYCAAAFKYYYRFEYDYWGQGTQVTVSS | low polyreactivity
QVQLVESGGGLVQAGGSLRLSCAASGNIFRNNAMGWYRQAPGKERELVAAISYSGGRTYYADSVKGRFTISRDNAKNTVYLQMNSLKPEDTAVYYCAVTYGRNADDYEYWGQGTQVTVSS | high polyreactivity
QVQLVESGGGLVQAGGSLRLSCAASGNIFRYNAMGWYRQAPGKERELVAAISSGGSTYYADSVKGRFTISRDNAKNTVYLQMNSLKPEDTAVYYCNRRRWLWQTARGDYWGQGTQVTVSS | high polyreactivity
QVQLVESGGGLVQAGGSLRLSCAASGNIFSAYALGWYRQAPGKERELVATITSGGITYYADSVKGRFTISRDNAKNTVYLQMNSLNPEDTAVYYCNADHHGQAEYGYWGQGTQVTVSS | low polyreactivity
QVQLVESGGGLVQAGGSLRLSCAASGNIFSRYAMGWYRQAPGKERELVAAISKSGGSTYYADSVKGRFTISRDNAKNTVYLQMNSLKPEDTAVYYCAAYTFFLGYPEFDYWGQGTQVTVSS | high polyreactivity
QVQLVESGGGLVQAGGSLRLSCAASGNIFSSYAMGWYRQAPGKERELVARITTSAGRTYYADSVKGRFTISRDNAKNTVYLQMNSLKREETAVYSCAARGQSAYSIWRYYYWGQGTQVTVSS | high polyreactivity
QVQLVESGGGLVQAGGSLRLSCAASGNIFSVYAMGWYRQAPGKERELVAAISSSGGRTYYADSVKGRFTISRDNAKNTVYLQMNSLKPEDTAVYYCNTAGYDYYSTQAYDYWGQGTQVTVSS | high polyreactivity
QVQLVESGGGLVQAGGSLRLSCAASGNIFSWYAMGWYRQAPGKERELVAAITSGGRTYYADSVKGRFTISRDNAKNTVYLQMNSLKPEDTAVYYCNAVSRLYNRRDYWGQGTQVTVSS | high polyreactivity
QVQLVESGGGLVQAGGSLRLSCAASGNIFSYYAMGWYRQAPGKERELVAAISSGGSTYYADSVKGRFTISRDNAKNTVYLQMNSLKPEDTAVYYCATSYFSYFFYEYYSWGQGTQVTVSS | low polyreactivity
QVQLVESGGGLVQAGGSLRLSCAASGNIFTKYAMGWYRQAPGKERELVAAITWSGGSTYYADSVKGRFTISRDNAKNTVDLQMNILKPEDTAVYYCATAHVFRRDKPYDYWGQGTQVTVSS | high polyreactivity

Sequence | polyreactivity (PSR sort gate)
QVQLVESGGGLVQAGGSLRLSCAASGNIFVAYAMGWYRQAPGKERELVAAITSGGRTYADSVKGRFTISSDNAKNTVYLQMNSLKPEDTAVYYCNADPYYVYLGYYDRYYSGYGYWGLGTQVTVSS | low polyreactivity
QVQLVESGGGLVQAGGSLRLSCAASGNIFVAYAMGWYRQAPGKERELVAVISNGGRTYYADSVKGRFTISRDKAKNNVYLQMNSLKPADTAVSYCATVAHASYGWHNYWGQGTQVTVSS | high polyreactivity
QVQLVESGGGLVQAGGSLRLSCAASGNIFVDNAMGWYRQAPGKERELVAAITFSGDDTYYADSVKGRFTISRDNAKNTVYLQMNSLKPEDTAVYYCNAVPTLYWWYDYWGQGTQVTVSS | low polyreactivity
QVQLVESGGGLVQAGGSLRLSCAASGNIFVINAMGWYRQAPGKERELVAAISWSTANTYYADSVKGRFTISRDNAKNTVYLQLNSLKPEDTAVYYCAAVFRYYTYSGAVRYYYWGQGTQVTVSS | high polyreactivity
QVQLVESGGGLVQAGGSLRLSCAASGNIFVRYAMGWYRQAPGKEREFVAAISSSGGSTRYADSVKGRFTISRDNAKNTVYLQMNSLKPEDTAVYYCAATRVARHGSPMYYWGQGTQVTVSS | high polyreactivity
QVQLVESGGGLVQAGGSLRLSCAASGNIFVSNVMGWYRQAPGKERELVAAISSGGRTYYADSVKGRFTISRDNAKNTVYLQMNSLKPEDTAVYYCAASYKSKYLGGGEYWGQGTQVTVSS | high polyreactivity
QVQLVESGGGLVQAGGSLRLSCAASGNIFVYNAMGWYRQAPGKEREFVAAIDSGGSTYYADSVKGRFTISRDNAKNTVYLQMNSLKPEDTAVYYCARAVVQSRGPPRYKTPYDYWGQGTQVTVSS | low polyreactivity
QVQLVESGGGLVQAGGSLRLSCAASGNIFWWNAMGWYRQAPGKERELVAAITSDSTTYYADSVKGRFTISRDNAKNTVYFQMNCLKPEDTAVYYCAAYSYGGQGVDYGYWGQGTQVSVSS | low polyreactivity
QVQLVESGGGLVQAGGSLRLSCAASGNIFYGYAMGWYRQAPGKERELVAAISRAGRTYYADSVKGRFTISRDNAKNTVYLQMNSLKPEDTAVYYCAADFYYASYVRYNYWGQGTQVTVSS | low polyreactivity
QVQLVESGGGLVQAGGSLRLSCAASGNIFYYYAMGWYRQAPGKERELVADITSGGDTDYADSVKGRFTISRDNAKNTVYLQMNSLKPEDTAVYYCNAQYYFHVTYDYWGQGTQVTVSS | low polyreactivity
QVQLVESGGGLVQAGGSLRLSCAASGNIIQYYAMGWYRQAPGKERELVADIDSSGASKYYADSVKGRFTISRDNAKNTVYLQMNSLKPEVTAVYYCAAEFHWWYAGYDYGYWGQGTQVTVSS | low polyreactivity
QVQLVESGGGLVQAGGSLRLSCAASGNIIYQNAKGLYRQAPGKERELVAAITGRGSSTYYADSVKGRFTISRDNAKNTVYLQMNSMKPEDTAVYYCAADTTPYDGYYGHGYWGQGTQVTVSS | low polyreactivity
QVQLVESGGGLVQAGGSLRLSCAASGNILFNNSMGWYRQAPGKERELVAAISRSAGSTYYADSVKGSFTISRDNEKNTVYLQMNRLKPEDTAVYYCAAQYFRRSGYWGQGTQVTVSS | high polyreactivity
QVQLVESGGGLVQAGGSLRLSCAASGNILLFNAMGWYRQAPGKERELVATINQSGGRTYYADSVKGRFTISRDNAKNTVYLQMNSLKPEDTAVYYCAATRRYPPYFHHYDYWGQGTQVTVSS | low polyreactivity
QVQLVESGGGLVQAGGSLRLSCAASGNILSVNAMGWYRQAPGKERELVASIRSSTASTYYADSVKGRFTISRDNAKNTVYLQMNSLKPEDTAVYYCAARARYNRYDYWGQGTQVTVSS | high polyreactivity
QVQLVESGGGLVQAGGSLRLSCAASGNIYAYYAMGWYRQAPGKEWELVAAITDSGGNTFYADSVKGRFTISRDNAKNTVYLQMNSLKPVDTAVYYCAADPDGWGFVYPRYDYWGQGTQVTVSS | low polyreactivity
